Common to all, as to experiment: fluorescence anisotropy
Data set [1] addresses T1, U2AF2 12L G297D (UniProt P26368 141-342, G297D).
For a further data set, the target named is U2AF2 12L R227N (UniProt P26368 141-342, R227N).
A further data set has as its target U2AF2 12L K225N (UniProt P26368 141-342, K225N).
In data set [2] the target is T1, U2AF2 12L G297D. The source holds these as a separate data set.
Data set [3] addresses T2, U2AF2 12L (RRM1-RRM2) (UniProt P26368 141-342).
Data set [4] addresses T2, U2AF2 12L (RRM1-RRM2). The source holds these as a separate data set.
The target of data set [5] is T2, U2AF2 12L (RRM1-RRM2). This is another data set of the same source.

Where two headings read alike, the source gives them in different places. Bounds are passed on as bounds.

T1 sequence (P26368 141-342 G297D): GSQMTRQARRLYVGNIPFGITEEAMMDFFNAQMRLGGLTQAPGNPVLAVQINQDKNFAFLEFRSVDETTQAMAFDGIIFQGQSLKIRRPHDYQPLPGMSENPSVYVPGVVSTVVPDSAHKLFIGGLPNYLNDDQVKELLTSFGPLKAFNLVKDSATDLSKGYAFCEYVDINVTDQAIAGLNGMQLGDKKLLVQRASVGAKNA
T2 sequence (P26368 141-342): as the sequence (P26368 141-342 G297D) above, with D157G counted along it
Sequence of U2AF2 12L K225N (P26368 141-342 K225N): as the sequence (P26368 141-342 G297D) above, with K85N, D157G counted along it
Sequence of U2AF2 12L R227N (P26368 141-342 R227N): as the sequence (P26368 141-342 G297D) above, with R87N, D157G counted along it

B1: U9 A5 (ssRNA)
RNA: UUUUAUUUU
For the molecule B1, the binding signal with U2AF2 12L G297D [1] was ~2 fold penalty; with U2AF2 12L R227N, > 5 fold penalty; with U2AF2 12L K225N, > 5 fold penalty.

B2: U9 C5 (ssRNA)
RNA: UUUUCUUUU
As to B2, the binding signal with U2AF2 12L G297D [2] was ~2 fold penalty. Also, the binding result in the data set with U2AF2 12L (RRM1-RRM2) [3] is reported as “binds”.

B3: U9 G5 (ssRNA)
RNA: UUUUGUUUU
Turning to B3, the binding signal with U2AF2 12L (RRM1-RRM2) [4] was < 2 fold Kd increase vs N5; with U2AF2 12L G297D [1] it was ~2 fold penalty; in the data set with U2AF2 12L R227N it was > 5 fold penalty; with U2AF2 12L K225N, > 5 fold penalty.

B4: U9 G4 (ssRNA)
RNA: UUUGUUUUU
On to B4, for which, in the data set with U2AF2 12L (RRM1-RRM2) [5], the binding signal is ~3 fold Kd increase vs N5.

B5: U9 G6 (ssRNA)
RNA: UUUUUGUUU
As for B5, the binding signal with U2AF2 12L (RRM1-RRM2) [5] was ~3 fold Kd increase vs N5.

Source of the values: PMC9128377.
